The series is described as follows: yeast display, Sf9 membrane polyspecificity reagent, FACS + sequencing; frameworks hold sequencing errors. In short, it runs like this: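 Genes from sorted yeast were amplified by colony PCR, read by MiSeq 2 × 250 sequencing and filtered on CDR length. These cells carried a synthetic nanobody library in Saccharomyces cerevisiae BJ5465 and were sorted by FACS into low and high (top ~1%) gates on anti-HA and streptavidin fluorescence. Polyreactivity is labelled according to the gate of origin.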
On to “QVQLVESGGGLVQAGASLRLSCAASGSIFYHNTMGWYRQAPGKERELITYYADSVKRRFTISRDNAKNTVYLQMNSLKPEDTAVYYCAASPVYRTGPGDYDYWGQGTQVTVSS”, for which the “polyreactivity (PSR sort gate)” value is “low polyreactivity”. On to “QVQLVESGGGLVQAGASLRLSCAASGSISKSYAMGWYRQAPGKERELVAAISWRGGSTYADSVKGRFTISRDNAKNTVYLQMNSLKPEDTAVYYCAATNYGTFWGGQSERYDYWGQGTQVTVSS”, for which the “polyreactivity (PSR sort gate)” value is “low polyreactivity”. Next, “QVQLVESGGGLVQAGASLRLSCAASGSTFHSYAMGWYRQAPGKERELVAAISTSGGSTYYADSVKGRFTISRDNAKNTVYLQMNSLKPEDTAVYYCAAYSISSRMNYWGQGTQVTVSS”: “high polyreactivity”; “QVQLVESGGGLVQAGASLRLSCAASGSTFKYYTMGWYRQAPGKERALVAAISFSGARTYYADSVKGRFTISRDNAKNTVYLQMNSLKPEDTAVYYCAKASSYSRRYEYWGQGTQVTVSS”: “high polyreactivity”. In the case of “QVQLVESGGGLVQAGASLRLSCAASGSTFYYNAMGWYRQAPGKERELVAAISKSSSRTYYADSVKGRFTISRDNAKNTVFLQMNSLKPEDTAGYYCAADAVYYHFDYWGQGTQVTVSS” it was “high polyreactivity”; in that of “QVQLVESGGGLVQAGASLRLSCAASGYIFVRYAMGWYRQAPGKEREFVAAISSSGGSTRYADSVKVRFTISRDNAKNTVYLQMNSLKPEDTAVYYCAATRVARHGSPMYYWGQGTKVTVSS”, “high polyreactivity”; in that of “QVQLVESGGGLVQAGASLSLSCAASGYIFARYAMGLYIQSPGKERELVAAIRGDGGSTYYADSVKGRFTISRDNAKNTVYLQMNSLKPVDTAVYYCSTEIPWVSYYWTYYFWGQCTQVTVSS”, “high polyreactivity”. Next, “QVQLVESGGGLVQAGASLSLSSAASGYIFYRYAMGWYRQAPGKERELVAAISSNGVSTYYADSVKGRFTISRDNAKNTVYLQLISLKPEDTAVYYCARDVYASPRRYNSRYNYWGQGTQVTVSS”: “low polyreactivity”; “QVQLVESGGGLVQAGCSLRFSSAASGRISNYPMGWYRQPPGKERELVAAITWSGGSTYADSVKGRFTISRDNAKNTVYLQMNSLKPEDTAVYYWAARGTRYWDYRYYAYNYWGQGTQVTVSS”: “high polyreactivity”; “QVQLVESGGGLVQAGCSLRISCAASGRIIKSYASGWYRQAPGKERELVAAITWSSGSTYYADSVKGRFTISRDNAKNTVYFQMKRLKPEDTEVYYCAADPIRYRSRHKYGFWGHGTQVTVSS”: “low polyreactivity”. On to “QVQLVESGGGLVQAGCSLRLICAASGSIFDEYAMGWYRKAPGKERELVAAITSNGGSTYADSVKGRFTISRDNAKNTVYLQMNSLKPEDTAVYYCAADYFVYWYYGYGYWGQGTQVTVSS”, for which the “polyreactivity (PSR sort gate)” value is given as “low polyreactivity”. “QVQLVESGGGLVQAGCSLRLRCAASGFTFQYNGMGWYRQAPGKERELVAAINWSGGTTYYADSVKGRFTISRDNAKNTVYLLMNCLKPEDTAVYYCAKGYWRRYSPVGGLGYDYWGQGTQVSVSS”: the “polyreactivity (PSR sort gate)” value is “high polyreactivity”. Next, “QVQLVESGGGLVQAGCSLRLSCAACGSIFRAYAMGWYRQAPGKERELVADISRSGGSTYYADSVKGRFTISRDNAKNTVYLQMNSLKPEDTAFYYCAASYLGGQWRALGYDYWGQGTQVTVSS”: “low polyreactivity”; “QVQLVESGGGLVQAGCSLRLSCAASGFIFQANAMGWYRQAPGKERELVAAIDDGDSTYADSVKGRFTISRDNAKNTVYLQMNSLKPEDTAVYYCNADLYGAQDRRLDYYAEGYWGQGTQVTVSS”: “low polyreactivity”; “QVQLVESGGGLVQAGCSLRLSCAASGFIFSRYTMGWYRQAPGKERELVAAISRRGGNTYYADSVKGRFTISRDNAKNTVYLQMNSLKPEDTAVYYCADEYNQSFDYWGQGTQVTVSS”: “low polyreactivity”. In the case of “QVQLVESGGGLVQAGCSLRLSCAASGFIILNYTMGLYRQAPGKERELVAAISNGSDRTYYADSVKGRFTISRDNAKNTVYLQMISLKTEDTAVYYCAKDRDFSSPPTESGFDYWGQGTQVNVSS” it was “low polyreactivity”; in that of “QVQLVESGGGLVQAGCSLRLSCAASGFIYPVNAMGWYRQAPGKERELVAAITYSTGSTYYADSVKGRFTISRDNAKNTVYLQMNSLKPEDTAVYYCAADVPPGEVVTNDYWGQGTQVTVSS”, “low polyreactivity”; in that of “QVQLVESGGGLVQAGCSLRLSCAASGFTFGRNAMGWYRQAPGKEREFVADISGSVGSTYYADSVKGRFTISRDNAKNTVYLQMNSLKPEDTAVYYCAADTLYPRWEFDYWGQGTQVTVSS”, “high polyreactivity”.

In the case of “QVQLVESGGGLVQAGCSLRLSCAASGFTFHTYAMGWYRQAPGKERELVAAITGRGGSTYYADSVKGRFTISRDNAKNTVYLQMNSLKPEDTAVYYCTAYRRGWGDRMYYWGLGTQVTVSS”, the “polyreactivity (PSR sort gate)” value is reported as “high polyreactivity”. “QVQLVESGGGLVQAGCSLRLSCAASGFTFPIYAMGWYRQAPGKEREFVAAITASGDNTYYADSVKGRFTISRDNAKNTVYLQINSLKPEDTAVYYCAADWFVDWWEYDYWGQGTQVTVSS”: the “polyreactivity (PSR sort gate)” value is recorded as “low polyreactivity”. In the case of “QVQLVESGGGLVQAGCSLRLSCAASGIIFAWYAMGWYRQAPGKERELVAGISQSGGRTYYADSVKGRFTISRDNAKNTVYLQMNSLKPEDTAVYYCAAERPYSRVGYYYWGQGTQVTVSS” it was “high polyreactivity”. In the case of “QVQLVESGGGLVQAGCSLRLSCAASGIIYINYAMGWYRQAPGKERELVAVITRGGSTYYADSVKGRFTISRDNAKNTVYLLMNSLKPEDTAVYYCNARYLSWWTGRFNYWGQGTQVTVSS” it was “high polyreactivity”; in that of “QVQLVESGGGLVQAGCSLRLSCAASGITFTEYAMGWSRQAPGKERELGATISYGGGITYYADSVKGRFTISRDNAKNTVYLQMNSLKPEDTAVYYCAADGLSQVQRGMDYWGQGTQVTVSS”, “low polyreactivity”.

In the case of “QVQLVESGGGLVQAGCSLRLSCAASGLIFPGYDMGWYRQAPGKERELVADISDSGANTYYADSVKGRFTISRDNAKNTVYLQMNSLKPEDTAVYYCAADSSWWYGTSFGRFDYWGQGTQVTVSS”, the “polyreactivity (PSR sort gate)” value is reported as “low polyreactivity”. Next, “QVQLVESGGGLVQAGCSLRLSCAASGLIFRSYAMGWYRQAPGKERELFARISIRGGSTYYADSVKGRFTISRDNAKNTVYLQMNSLKPEDTAVYYCAARPKNNWARTKYGIRYNYWGQGTQVTVSS”: “high polyreactivity”; “QVQLVESGGGLVQAGCSLRLSCAASGLIFYYYAMGWYRQAPGKERELVAAITSDDRTYYADSVKGRFTISRDNAKNTVYLQMNSLKPEDTAVYYCAARYHGYLAQYRKYGYGYWGQGTQVTVSS”: “high polyreactivity”; “QVQLVESGGGLVQAGCSLRLSCAASGLIIPVYVMGWYRQAPGKERELVADITTVGSTYADSVKGRFTISRDNAKNTVYFQMNSLKPEDTAVYYFADDPPAQQYWWDHGNYWGQGTQVTVSS”: “low polyreactivity”.

For the sequence “QVQLVESGGGLVQAGCSLRLSCAASGRTFGVYAMGWYRQAPGKERELVAGIRWRGGSTYYADSVKGRFTISRDNAKNTVYLQMNSLKPEDTAVYYCAADVYLVKYDYWGQGTQVTVSS”, the “polyreactivity (PSR sort gate)” value is reported as “low polyreactivity”. Next, “QVQLVESGGGLVQAGCSLRLSCAASGRTFRSDNSMGWYRQSPGKQRELVAAISQGGGTYYADSVKGRFTISRDNAKNTVYLLMNSLIPEDTAVYYCARDAFYADPSLWYYTYDFWGQGTQETVSS”: “low polyreactivity”. Take “QVQLVESGGGLVQAGCSLRLSCAASGRTFYFYTMGWYRQAPGKVRELVAAISWSGGSTYYADSVKGRFTISRDNAKYTVYLQMNSLKPEDTAVYYCNAVFFKGSESGLDYWGQGTQVTVSS”: the “polyreactivity (PSR sort gate)” value was “high polyreactivity”.

For the sequence “QVQLVESGGGLVQAGCSLRLSCAASGRTFYYNAMGWYRQAPGKERELVAAITRSGSSTYYADSVKGRFTISRDNAKNTVYLQMNSLKPEDTAVYYCAARVGDAYYYWGQGTQVTVSS”, the “polyreactivity (PSR sort gate)” value is listed as “high polyreactivity”. Next, “QVQLVESGGGLVQAGCSLRLSCAASGRTLGWNAMGWYRQAPGKERELVAAISSSTSTYYADSVKGRFTISRDNAKNTVYLQMNSLKPEDTAVYYCAALYWGQGTQVTVSS”: “low polyreactivity”; “QVQLVESGGGLVQAGCSLRLSCAASGRTLKYNAMGGYIQAPGKERELVAAISRSGGRLYYADSVKGRFTMSRDNAKNTVYLQMNSLKPEDTAVYYCAKDRSGSYYNFPEYDYWGQGTQVTVSS”: “high polyreactivity”. “QVQLVESGGGLVQAGCSLRLSCAASGSIFEPYVMGWYRQAPGKERELVAAIRQTGGSTYYADSVKGRFKISRDNAKNTVYLQMNSLKPEDNAFYYCNAEHNPSGLYDYRGVECEMGYWGQGNQVTVSS”: the “polyreactivity (PSR sort gate)” value is reported as “low polyreactivity”. Next, “QVQLVESGGGLVQAGCSLRLSCAASGSIFPANAMGWYRQAPGKEWEFVAAINWSTGTTYNADSVKGRFTISRDNAKNTVYLQMTSLKPEDTAFYHCAAGDWYSGNTTHFYYWGQGTQVTVSS”: “low polyreactivity”. As for “QVQLVESGGGLVQAGCSLRLSCAASGSIFYQYSMGWYRQAPGKERELVAAITWDGSRTYYADSVKGRFTISRDNAKNSVYLQMNSLKPEDTSVYYSNAVTRYSLFDYWGLGTQVTVSS”, the “polyreactivity (PSR sort gate)” value is given as “high polyreactivity”. For “QVQLVESGGGLVQAGCSLRLSCAASGSIYLVNAMGWYRQAPGKERELVAAIDWSGDTTYYADSVKGRFTISRDYEKNTVYLQMNRLKPEDTAVYYCAAEYEFHEYDYWGQGTQVTVSS”, the “polyreactivity (PSR sort gate)” value is “high polyreactivity”. On to “QVQLVESGGGLVQAGCSLRLSCAASGSSFYTYTMGWYRQAPGKERELVAAITWSGGSTYYADSVKGRFTISRDNAKNTVYLQMNSLKPEDTAVYFCNADQDYQAARPSGMDYWGQGTQVTVSS”, for which the “polyreactivity (PSR sort gate)” value is reported as “low polyreactivity”. Next, “QVQLVESGGGLVQAGCSLRLSCAASGSTFPYNAMGWYRQAPGKERELVATIDATGGSTSYADSVKGRFTISRDNAKNTVYLQMNSLKPEDTAVYYCAAVAYILYFYAYYLTYDYWGQGTQVTVSS”: “low polyreactivity”. Next, “QVQLVESGGGLVQAGCSLRLSCAASGSVFTVYSMGWYRQAPGKERELVAAITRNGGRTYYADSVKVRFTISRDNSKNTVYLQMKILKPEDTAVYSCAATGLYSRLDYWGQGTQVTVSS”: “high polyreactivity”. In the case of “QVQLVESGGGLVQAGCSLRLSCAASGYIFYNAMGWYRQAPGKERELVAAITSGGSTNYADSVKGRFTISRDNAKNTVYFQMNSLKPEDTADYYCNAVVYSPYRYEYWGQGTQVTVSS” it was “low polyreactivity”.

(Values after the nanobody polyreactivity screen of Harvey et al. (2022).)
